# Data taken from patent US20250188161A1 (UNIVERSITE CATHOLIQUE DE LOUVAIN, published 2025).
# Several values for one entry are separate records, joined by “and”; a condition that tells them apart may be missing. Equal values may be shown once.
# Key:
# [1] = biological target: T1, human latent TGF-β1 on transfected HEK-293T cells (human, UniProt P01137 30-278; P01137 279-390); assay: cell-based or functional assay
# [2] = biological target: T1, human latent TGF-β1 on transfected …; assay: flow cytometry, HEK-293T cells co-transfected with mGarp and the HA-tagged TGF-β1 construct
# [3] = biological target: T2, mouse latent TGF-β1 on transfected HEK-293T cells (mouse, UniProt P04202 30-278; P04202 279-390); assay: as above
# T2 construct: also called mouse TGF-β1; mTGF-β1
# T2 sequence (P04202 30-278, chain 1 of 2): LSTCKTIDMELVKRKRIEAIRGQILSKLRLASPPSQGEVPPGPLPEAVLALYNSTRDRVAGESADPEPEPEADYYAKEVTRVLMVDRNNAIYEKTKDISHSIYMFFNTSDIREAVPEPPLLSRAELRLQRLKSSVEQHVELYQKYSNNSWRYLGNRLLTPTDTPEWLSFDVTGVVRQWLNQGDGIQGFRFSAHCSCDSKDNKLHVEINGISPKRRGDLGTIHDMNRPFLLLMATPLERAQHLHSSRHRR
# T2 sequence (P04202 279-390, chain 2 of 2): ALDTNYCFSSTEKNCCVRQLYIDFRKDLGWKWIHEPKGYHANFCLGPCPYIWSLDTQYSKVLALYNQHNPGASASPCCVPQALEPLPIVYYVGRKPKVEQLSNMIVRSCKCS
# T1 sequence (P01137 30-278, chain 1 of 2): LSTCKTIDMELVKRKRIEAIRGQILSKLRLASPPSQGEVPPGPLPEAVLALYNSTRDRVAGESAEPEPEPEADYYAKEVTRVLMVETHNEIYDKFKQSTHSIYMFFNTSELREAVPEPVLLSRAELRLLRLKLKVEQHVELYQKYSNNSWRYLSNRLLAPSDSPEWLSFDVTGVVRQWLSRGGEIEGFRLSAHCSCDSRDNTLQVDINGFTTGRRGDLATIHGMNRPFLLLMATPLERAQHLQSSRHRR
# T1 sequence (P01137 279-390, chain 2 of 2): as the sequence (P04202 279-390, chain 2 of 2) above, with S75A counted along it
Binder,"EC50, TGF-β1 luciferase reporter assay in HEK-293T cells expressing GARP:TGF-β1 [1]",% binding relative to WT TGF-β1 (100 %) [2] [%],binding result [3],% binding relative to WT TGF-β1 (100 %) [3] [%]
"LHT-15 (13E7) (antibody, V domains shown) VH: EVQLVESGGDLVQPGGSLRLSCAASGFTFSSYWMDWVRQAPGKGLEWVSRITNSGGTAFYTDSVEGRFTISRDNAKNTLYLQMNSLKSEDTAVYYCLRYITRAQLMGAWDYWGQGTQVTVSS VL: ATMLTQSPGSLSVVPGESASISCKASQSLVHTDGKTYLSWLLQKPGQRPQLLIYQVSNRASGVPDRFTGSGSGTDFTLKISGVKAEDAGVYYCAQSTYYPYDFGSGTRLEIR",31 ng/ml and 0.2 nM,100,no binding,
"LMT-10 (20G4) (antibody, V domains shown) VH: QVQLVESGGGLVQPGGSLTLSCAASGFTFSNYYMTWVRQAPGKGLEWVSSIYSTGSHTYYADSVKGRFTISRDNAKDTLYLQMNDLKSEDTAVYYCAKNIYTYYTAHYAGMDYWGKGTLVTVSS VL: QSALTQPSTVSVSLGQMARITCQGGSLGSYDAHWYQQKPGQAPVLVIHDDNSRPSGIPERFSGSRSGGTATLTISGAQADDEGVYFCHSYDSSANAPVFGGGTELTVL",,,,100
